Target: pertussis toxin holotoxin (Bordetella pertussis, UniProt P04977 35-269; P04978 31-226; P04979 32-227; P0A3R5 43-152; P04981 36-133)
Assay: cell-based or functional assay

B1: 1B7 Fab (Fab)
chain: DIQMTQSPALMSASPGEKVTMTCSASSSVSFMYWYQQKPRSSPKPWIYLTSNLPSGVPARFSGSGSGTSYSLTISSMEAEDAATYYCQQWSSHPPTFGSGTKLEIKRGGGGSGGGGSGGGGSGGGGSEVQLQQSGSELVRPGASVKLSCKASGYKFTSYWMHWVKQRPGQGLEWIGNIFPGSGSTNYDEKFNSKATLTVDTSSNTAYMQLSSLTSEDSAVYYCTRWLSGAYFDYWGQGTTLTVSSASGA
In Vitro Neutralization (nM), minimum protective concentration, CHO clustering assay: 42 nM

— patent publication US20140193401A1 (published 2014)
